Laboratory results published in the nanobody polyreactivity screen of Harvey et al. (2022).

Experiment: yeast display, Sf9 membrane polyspecificity reagent, FACS + sequencing; frameworks hold sequencing errors
How it was run: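 Polyreactivity labels are assigned by the sorting gate from which each nanobody was recovered. The gates were low and high (top ~1%), set on anti-HA fluorescence for expression and streptavidin fluorescence for reagent binding. Before sorting, galactose-induced (36–48 hours) yeast display cells were stained for 1 hour at 4 °C with 10% biotinylated, detergent-solubilized Sf9 membrane reagent.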

Row | Sequence | polyreactivity (PSR sort gate)
1 | QVQLVESGGGLVQAGGSLRLSCAASGSTFSLYARGWYRQAPGKETELVAAITRGGNTYYADSVKGRFTISRDNAKNTVYLQMNSLKPEDTAVYYCNAYYYQFRGIRVSGGYWGQGTQVTVSS | high polyreactivity
2 | QVQLVESGGGLVQAGGSLRLSCAPSGRTLYGYAMGWYRQAPGKVSALVASFRSGGSTNYADSVKGRFTISLDNAKNTVYLQMNSLKPEDTAVYYCAADPYYSYGYYHAHGRDDGYWGQCTQVTVSS | low polyreactivity
3 | QVQLVESGGGLVQAGGSLRLSCAASGRIFTYYAMVWYRQAPGKERELVAAITGSGTSTYYADSVKGRFTISRDNAMNTVFLLMNSLKPEDTAVYYCAARNSFSRYYYWGQGTQVTVSS | high polyreactivity
4 | QVQLVESGGGLVQAGGSLRLSCAASGSTFKINAMGWYRQAPGKERELVAAIRSRGGGTYYADSVKGRFTISRDNAKNTVYLQMNSLKPEDTAVYYCAATRRYHFDYWGQGTQVTVSS | high polyreactivity
5 | QDQLVESVVGLVQAGGSLSLSCDSSARTFWYNAMGCYRQAPGKEREFVAAISSSGGTTYYADSVKGRFTISRDNAKNTVYLQMNSLKPEDTAVYYCAKRFSLLSTVRWGRYNYWGQGTQVTVSS | high polyreactivity
6 | QVQLVESGGGLVQAGGSLRLSCAASGITFNSYAMGWYRQAPGKERELVAAISGSGSSTYYADSVKGRFTISRDNAKNTVYLQMNSLKPEDTAVYYCAATGYSSWTYYTHEYWGQGTQVTVSS | low polyreactivity
7 | QVQLVESGGGLVQAGGSLRLSCAASGYTFLANAMGWYRQAPGKERELVAAISSGGTTYYADSVKGRFTISRDNAKNTVYLQMNSLKPEDTAVYYCAAKDTTVFYYDDDYWGQGTQVTVSS | low polyreactivity
8 | QVQLVESGGGLVQAGGSLRLSCAASGRTFRYYTMGWYRQAPGKERELVASISWSGGSTYYADSVKGRFTISRDNAKNTVYLQMNSLKPEDTAVYYCNAVYGYRGVTNMDYWGQGTQVTVSS | high polyreactivity
9 | QDQLVESGGGLVQAGGSLRLSCAASGRTFAKSAMGWYRQAPGKERELVASISRRGGSTYYADSVKGRFTISRDNAKNTVYLQMNSLKPEDTAVYYCNAVVTVNGYDSWGQGTQVTVSS | high polyreactivity
10 | QVQLVESGGGLVQAGGSLRLSCAASGFTFVSYAMGWYRQAPGKERELVAAISRSGGTTYYADSVKGRFTISRDNAKNTGYFQMNSLKPEDTAVYYCAADFYVFYTRYYYWGQGTQVTVSS | low polyreactivity
11 | QVQLVESGGGLVQAGGSLRLSCATSGSIFYRYAMGWYRQAPGKEREFVAAIRWRGGSTYYADSVKGRFTISRDNAKNTVYLQMNSLKPEDTAVYYCAAPTVQSYNYWGQGTQVTVSS | high polyreactivity
12 | QVQLQESGGGLMQAGGNLRLSCAASGYISTHYDMDWYRQAPGKERELVARIDDGAITNYADSVKGRFTISRDNAKNTVYLQMNSLKPEDTAVYYCAVSSGDDYYHDYWGQGTQVTVSS | low polyreactivity
13 | QVQLVESGGRLVQAGGSIRLSCAASGRTFYNNAMGWYRQAPGKERELVAAISSGGSTYYADSVKGRFTISRDNAKNTVYLQMNSLKPEDTAVYYCNVRRGGWGYRYYYWGQGNQVTVSS | high polyreactivity
14 | QVQLVESGGGLVQAGGSLRLSCAASGSILYVYAMGWYRPAPGKETELVAVITSGGSTNYADSVKGRFTISRDNAKNTVYLQMNSLKPEDTAVYYCAADPYSVYGGDYWGKGTQVTVSS | low polyreactivity
15 | QVQLVESGGGLVQAGGSLRLSCAASGRIFPYNAMGWYRQAPGKERELVATNTSGRSTYYADSVKGRFTISRDNAKNTVDVPLNSLKPEDTAVYYCAARYPSIYYYRYDYWGQGTQVTVSS | high polyreactivity
16 | QVQLVESGGGLVQAGGSLRLSCAASGRTFKFYAMGWYRQAPGKERELVAAISSSGGRTYYADSVKGRFTISRDNAKNTVYLQMNSLTPEDTAVYYCAAVPGSKFVQKDDYWGQGTQVTVSS | low polyreactivity

Row | Sequence | polyreactivity (PSR sort gate)
17 | QVQLVESGGGLVQAGGSLRLSCAASGSTFGLYAMGWYRQAPGKEREFVAAITASGGRTYYADSVKGRFTISRDHAKNTVYLQMNSLKPEDTAVYYCNSRTSHYDKYGYWGQGTQVTVSS | high polyreactivity
18 | QVQLVESGGGLVQAGGSLRLSCAASGSIFRWYAMGWYRQAPGKERELVAAISKSGGTTYYADSVKGRFTISRDNAKNTVYLQMNSLKPEDTAVYYCAARRYPYGGYGYRYDYWGQGTQVTVSS | high polyreactivity
19 | QVQLVESGGGLVQAGGSLRLSCAASGRIFFLNTMGWYRQAPGTERELVAAITRGGSTYYADSVKGRFTISRDNAKNTVYLQMNSLKPEDTAVYYCAADVYGGIGYDYWGQGTQVTVSS | low polyreactivity
20 | QVNLVESGGGLVQAGGSLRLSCAASGIIFRSYAMGWYRPAPGKARELVADITSTGTSTYYADSVKGRFTISRDNAKNTVYLQMNSLKPEDNAVYYCNADRFGFYPQRDYWGQGTQVTVSW | high polyreactivity
21 | QVQLQESGAGLVQAGGRLRLSCASSGTITVLYKMGWFRQAPGKEREFVASINYGTSTYYADSVKGRFTVSRDSATNHEYLQMISLKPEDTAVYYCAAAYRWQDVYRYWGQGSQVTVSS | low polyreactivity
22 | QVQLVESGGGLVQAGGSLRLSCAASGITIVRYAMGWSRQAPGKERELVAAINRSGGSTYYADSVKGRFTISRDNAKNTVYLQMNSLKPEDTAVYYCAARLYGKYDPPGYYYWGQGTQVTVSS | high polyreactivity
23 | QVQLVESGGGLVQAGGSLRVSCAASGRTFKKYTMGLYRQAAGKERELVPVITSGGSTYYADSVKGRFTISRDNAKNTVYLQMNSLKPEDTAVYYWAADLYYNSYGRYGRYYYWGQGTQVTVSS | high polyreactivity
24 | QVQLVESGGGLVQAGGSLRLSCAASGSIFTFYAMGWYRQAPGKERELVATINRIGGNTYYADSVKGRFTISRDNAKNSVYLLMKSLKPEETAVYYCAVCPYTRPYYRTFDHWGQGTLVTVSS | low polyreactivity
25 | QVQLVESGGGLVQAGGSLRLSCAASGSIFVRNVMGWYRQAPGKERELVAAISGSGGSTYYADSVKGRFTISRDNAKNTVYLQMNSLKPEDTAVYYCAAPRNLYGVYSYYYWGQGTQVTVSS | high polyreactivity
26 | QVQLVESGGGLVQAGGSLRLSCAASGLTFYKYAMGWYRQAPGKERELVAAITSTGGSTYYADSVKGRFTISRDNAKNTVYLQMNSLKPEDTAVYYCAAQWYTALYYWGQGTQVTVSS | high polyreactivity
27 | QVQLQESGVGLVQASGSIFHEPNMGSYRQAPGKERELVAGISSGANTYYADSVKGRFTISRDNAKNTVYLQMNSLKPEDTAVYHCAVVVHLYTDLRYWGQDTQVTVSS | high polyreactivity
28 | QGHLVESGGGLVHAGGSLRLSCAASGRIFDVNAMGWYRQAPWKERELVAAISSGGNTKYADSVKGRFTISRDNAKNTVYLQMNSLKPEDTAVYYCIADGKAGGDYDYWGQGTQVTVSS | low polyreactivity
29 | QVQLQESGGGLVQAGGSLRLSCAASGSIFYWPWMGWYRQAPGREREFVATITTGSNTYYADIMKGHLTISRDNARNTVYLQMKSLKPEDTAVYYCAVVGDGEIEHRYWGQGTQVTVSS | high polyreactivity
30 | QVQLVESGGGLVQAGGSLRISCAAYGRIFWWYAMGWYRQAPGKERELVASIRYGGGSTYYADSVKGRFTISRDNAKNTVYLQMNSLKPEDTAVYYCAARFKRHGRSDYWGQGTQVTVSS | high polyreactivity
31 | QVQLVESGGGLVQAGGSLRLSCDASGLTFPYYTMGWYRQAPGKERELVADINGSGGSTYYADSVKGRFTISLDNAKNTFYLQMNSLKPEDTEVYYCAAGSWQVAISYDYWGQGTQVTVSS | low polyreactivity
32 | QVQLVESGGGLVQAGGSLRLSCAASGFTFHNYAMGWYRQAPGKERELVAVIRWRGGSTYYADSVKGRFTISRDNAKNTVYLQMNSLKPEDTAVYYCNALFRYSRDYWGQGTQVTVSS | high polyreactivity
